For test [1], the target named is T1, human 4-1BB on the surface of HEK293 cells (HEK293-Hu4-1BB) (human, UniProt Q07011 24-255). As to the kind of experiment: cell-based or functional assay.
Test [2] deals with T1, human 4-1BB on the surface of HEK293 …. As to the kind of experiment: cell-based or functional assay. The source holds these as a separate data set.
Test [3] has the same target. As to the kind of experiment: FACS, HEK293-Hu4-1BB cells. Background: A flow cytometer gives signals particle by particle.
The target is the same in test [4]. As to the kind of experiment: FACS, HEK293-Hu4-1BB cells. This is another data set of the same source.
For test [5] the target is unchanged. As to the kind of experiment: FACS, HEK293-Hu4-1BB cells. This is another data set of the same source.
Test [6] has the same target. The test is described as follows: cell-based or functional assay. The source holds these as a separate data set.
The target is the same in test [7]. As to the kind of experiment: cell-based or functional assay. The source holds these as a separate data set.
Test [8] deals with T2, human CD40 on the surface of HEK293 cells (HEK293-HuCD40) (human, UniProt P25942 21-277). The test is described as follows: cell-based or functional assay.
Test [9] has as its target T2, human CD40 on the surface of HEK293 …. As to the kind of experiment: cell-based or functional assay. This is another data set of the same source.
In test [10] the target is T3, human FAP on the surface of CHO-K1 cells (CHO-K1-HuFAP) (human, UniProt Q12884 1-760).
T3 construct: whole, on cells; also called CHO cell line overexpressing human FAP; FAP on the surface of CHO-K1-HuFAP cells
As to the kind of experiment: FACS, CHO-K1-HuFAP cells.

Test [11] deals with T3, human FAP on the surface of CHO-K1 …. As to the kind of experiment: FACS, CHO-K1-HuFAP cells. This is another data set of the same source.
The target of test [12] is T2, human CD40 on the surface of HEK293 …. As to the kind of experiment: FACS, HEK293-HuCD40 cells.
The target is the same in test [13]. As to the kind of experiment: FACS, HEK293-HuCD40 cells. The source holds these as a separate data set.
The target in test [14] is T1, human 4-1BB on the surface of HEK293 …. As to the kind of experiment: FACS, HEK293-Hu4-1BB cells. This is another data set of the same source.
Test [15] shares this target. As to the kind of experiment: FACS, HEK293-Hu4-1BB cells. This is another data set of the same source.
In test [16] the target is T2, human CD40 on the surface of HEK293 …. As to the kind of experiment: cell-based or functional assay. The source holds these as a separate data set.

Changes are numbered by the printed parent chain. Names and notes keep the numbering of the source. Read-outs that look alike come from different tables or passages of the source.

The record followed here is patent EP4674868A1 (Jiangsu Hengrui Pharmaceuticals Co., Ltd., dated 2026).

B1: Urelumab (positive control anti-4-1BB antibody) (antibody, V domains shown)
VH: QVQLQQWGAGLLKPSETLSLTCAVYGGSFSGYYWSWIRQSPEKGLEWIGEINHGGYVTYNPSLESRVTISVDTSKNQFSLKLSSVTAADTAVYYCARDYGPGNYDWYFDLWGRGTLVTVSS
VL: EIVLTQSPATLSLSPGERATLSCRASQSVSSYLAWYQQKPGQAPRLLIYDASNRATGIPARFSGSGSGTDFTLTISSLEPEDFAVYYCQQRSNWPPALTFGGGTKVEIK
As for B1, in [1], the “4-1BB/NF-κB luciferase reporter, FcγRIIb crosslinking, EC50” value amounted to 0.027 nM and the “4-1BB/NF-κB luciferase reporter, no FcγRIIb crosslinking, EC50” value amounted to 2.19 nM. Moreover, in test [2], the “Activation of HEK293-4-1BB cells (NF-κB reporter), Fold change in Emax” value was 1.7 fold and the “FcγRIIb-mediated activation of HEK293-4-1BB cells (NF-κB reporter), Fold change in Emax” value was 2.61 fold. For the same molecule, in [3], it took 1.18 nM to reach a half-maximal effect (EC50) and the Maximum fluorescence value turned out to be 1000. In addition, in test [4], the midpoint of the response, the EC50, lay at 1.64 nM. In [5], this molecule showed a 50% effective concentration (EC50) of 1.64 nM and a Maximum fluorescence value of 39700.

B2: BNT312 (CD40/4-1BB bispecific antibody molecule, control) (bispecific antibody, human IgG1, kappa)
heavy 1: EVQLVQSGAEVKKPGASVKVSCKTSGYTFTEYIMHWVRQAPGQGLEWMGGIIPNNGGTSYNQKFQGRVTMTVDKSTSTGYMELSSLRSEDTAVYYCTRREVYGRNYYALDYWGQGTLVTVSSASTKGPSVFPLAPSSKSTSGGTAALGCLVKDYFPEPVTVSWNSGALTSGVHTFPAVLQSSGLYSLSSVVTVPSSSLGTQTYICNVNHKPSNTKVDKRVEPKSCDKTHTCPPCPAPEFEGGPSVFLFPPKPKDTLMISRTPEVTCVVVAVSHEDPEVKFNWYVDGVEVHNAKTKPREEQYNSTYRVVSVLTVLHQDWLNGKEYKCKVSNKALPAPIEKTISKAKGQPREPQVYTLPPSREEMTKNQVSLTCLVKGFYPSDIAVEWESNGQPENNYKTTPPVLDSDGSFLLYSKLTVDKSRWQQGNVFSCSVMHEALHNHYTQKSLSLSPGK
light 1: not shown
heavy 2: EVQLVESGGGLVQPGRSLRLSCTASGFSLNDYWMSWVRQAPGKGLEWVGYIDVGGSLYYAASVKGRFTISRDDSKSIAYLQMNSLKTEDTAVYYCARGGLTYGFDLWGQGTLVTVSSASTKGPSVFPLAPSSKSTSGGTAALGCLVKDYFPEPVTVSWNSGALTSGVHTFPAVLQSSGLYSLSSVVTVPSSSLGTQTYICNVNHKPSNTKVDKRVEPKSCDKTHTCPPCPAPEFEGGPSVFLFPPKPKDTLMISRTPEVTCVVVAVSHEDPEVKFNWYVDGVEVHNAKTKPREEQYNSTYRVVSVLTVLHQDWLNGKEYKCKVSNKALPAPIEKTISKAKGQPREPQVYTLPPSREEMTKNQVSLTCLVKGFYPSDIAVEWESNGQPENNYKTTPPVLDSDGSFFLYSRLTVDKSRWQQGNVFSCSVMHEALHNHYTQKSLSLSPGK
light 2: DIVMTQSPSSLSASVGDRVTITCQASEDISSYLAWYQQKPGKAPKRLIYGASDLASGVPSRFSASGSGTDYTFTISSLQPEDIATYYCHYYATISGLGVAFGGGTKVEIKRTVAAPSVFIFPPSDEQLKSGTASVVCLLNNFYPREAKVQWKVDNALQSGNSQESVTEQDSKDSTYSLSSTLTLSKADYEKHKVYACEVTHQGLSSPVTKSFNRGEC
For B2, in test [6], the “4-1BB/NF-κB luciferase reporter, CD40-crosslinked, EC50” value stood at 1.65 nM; the “4-1BB/NF-κB luciferase reporter, CD40-crosslinked, Fold change in Emax” value came to 4.76 fold; the “4-1BB/NF-κB luciferase reporter, FAP-crosslinked, EC50” value came out at 0.293 nM; the “4-1BB/NF-κB luciferase reporter, FAP-crosslinked, Fold change in Emax” value is 1.19 fold. Further, the “4-1BB/NF-κB luciferase reporter, uncrosslinked, Fold change in Emax” value in test [6] stood at 1.09 fold. Besides, in test [7], the “4-1BB/NF-κB luciferase reporter, CD40-crosslinked, EC50” value stood at 0.41 nM; the “4-1BB/NF-κB luciferase reporter, CD40-crosslinked, Fold change in Emax” value was found to be 3.56 fold; the “4-1BB/NF-κB luciferase reporter, FAP-crosslinked, Fold change in Emax” value came out at 1.01 fold; the “4-1BB/NF-κB luciferase reporter, uncrosslinked, Fold change in Emax” value worked out at 1.1 fold. Also, in test [8], the “CD40/NF-κB reporter (HEK-Blue CD40L), 4-1BB-crosslinked, EC50” value was 1.03 nM; the “CD40/NF-κB reporter (HEK-Blue CD40L), 4-1BB-crosslinked, Fold change in Emax” value is 5.97 fold; the “CD40/NF-κB reporter (HEK-Blue CD40L), FAP-crosslinked, Fold change in Emax” value was 5.41 fold; the “CD40/NF-κB reporter (HEK-Blue CD40L), uncrosslinked, Fold change in Emax” value was 5.06 fold. In test [9], the “CD40/NF-κB reporter (HEK-Blue CD40L), 4-1BB-crosslinked, EC50” value came to 0.69 nM; the “CD40/NF-κB reporter (HEK-Blue CD40L), 4-1BB-crosslinked, Fold change in Emax” value came to 9.51 fold; the “CD40/NF-κB reporter (HEK-Blue CD40L), FAP-crosslinked, Fold change in Emax” value worked out at 6.27 fold; the “CD40/NF-κB reporter (HEK-Blue CD40L), uncrosslinked, Fold change in Emax” value came out at 7.66 fold. Besides, the Maximum fluorescence value in test [10] came to 77. The molecule also displayed a Maximum fluorescence value in test [11] of 449. In test [12], the concentration giving a half-maximal response (EC50) is 6.78 nM and the Maximum fluorescence value is 108000. Besides, in test [13], the midpoint of the response, the EC50, lay at 2.77 nM and the Maximum fluorescence value was 109000. In test [14], this molecule showed an EC50 of 2.17 nM and a Maximum fluorescence value of 25700. In test [15], the EC50 stood at 0.77 nM and the Maximum fluorescence value was determined as 29300.

B3: humanized anti-4-1BB nanobody C5_V2 linked to human IgG1-Fc (Fc fusion)
chain: QVQLVESGGGLVQPGGSLRLSCSASGFTFSSYAMSWVRQAPGKGLEWVSDINSGGESTFYEDSVKGRFTISRDNAKNTLYLQMNSLRAEDTAVYYCAKHPLTFTIATMNDYDYWGQGTLVTVSSEPKSADKTHTCPPCPAPELLGGPSVFLFPPKPKDTLMISRTPEVTCVVVDVEHEDPEVKFNWYVDGVEVHNAKTKPREEQYNSTYRVVSVLTVLHQDWLNGKEYKCKVSSKAFPAPIEKTISKAKGQPREPQVYTLPPSRDELTKNQVSLTCLVKGFYPSDIAVEWESNGQPENNYKTTPPVLDSDGSFFLYSKLTVDKSRWQQGNVFSCSVMHEALHNHYTQKSLSLSPGK
Take B3: in test [2], the “Activation of HEK293-4-1BB cells (NF-κB reporter), Fold change in Emax” value was found to be 1.37 fold and the “FcγRIIb-mediated activation of HEK293-4-1BB cells (NF-κB reporter), Fold change in Emax” value came to 2.02 fold. In addition, in [3], a half-maximal response (EC50) required 1.62 nM and the Maximum fluorescence value amounted to 1030. Further, the EC50 in test [4] is 0.98 nM. In addition, in test [5], the midpoint of the response, the EC50, lay at 0.98 nM and the Maximum fluorescence value is 53700.

B4: C5_V2-YTI (TCE-optimized C5_V2, F99Y Kabat) linked to human IgG1-Fc (Fc fusion)
chain: B3 chain with F103Y
Regarding B4, the EC50 in [4] and in [5] was 0.62 nM in each case. In test [5], this molecule displayed a Maximum fluorescence value of 53800.

B5: Ab10-A12V2-2 (FAP/CD40 bispecific antibody molecule, control) (bispecific antibody, human IgG1, kappa, L234A L235A)
heavy: not shown
light: DIQMTQSPSSVSASVGDRVTITCRASQGISSWLAWYQQKPGKAPKLLIYAASSLQSGVPSRFSGSGSGTDFTLTISSLQPEDFATYYCQQANSFPPAFGQGTKVEIKRTVAAPSVFIFPPSDEQLKSGTASVVCLLNNFYPREAKVQWKVDNALQSGNSQESVTEQDSKDSTYSLSSTLTLSKADYEKHKVYACEVTHQGLSSPVTKSFNRGEC
For the molecule B5, the entries for the “4-1BB/NF-κB luciferase reporter, CD40-crosslinked, Fold change in Emax” value in test [6] and in test [7] were 1.1 fold and 1.07 fold, respectively. The “4-1BB/NF-κB luciferase reporter, FAP-crosslinked, Fold change in Emax” value in test [6] is 1.05 fold; in test [7] it was 1.01 fold. Also, the “4-1BB/NF-κB luciferase reporter, uncrosslinked, Fold change in Emax” value in test [6] amounted to 1.06 fold; in test [7], 1.1 fold. Also, the “CD40/NF-κB reporter (HEK-Blue CD40L), 4-1BB-crosslinked, Fold change in Emax” value was found to be 8.42 fold in test [16], 5 fold in test [8] and 4.27 fold in test [9]. In addition, the “CD40/NF-κB reporter (HEK-Blue CD40L), FAP-crosslinked, EC50” value in test [16] is 0.025 nM; in test [8], 0.23 nM; in [9] it was 0.35 nM. The “CD40/NF-κB reporter (HEK-Blue CD40L), FAP-crosslinked, Fold change in Emax” value in test [16] was 11.9 fold; in [8], 6.47 fold; in test [9], 11.3 fold. The “CD40/NF-κB reporter (HEK-Blue CD40L), uncrosslinked, Fold change in Emax” value in test [16] is 7.05 fold; in [8], 4.57 fold; in [9] it was 3.73 fold. In addition, the EC50 stood at 1.72 nM in test [10], 2.73 nM in test [11], 4.77 nM in [12] and 6.85 nM in [13]. Also, the Maximum fluorescence value stood at 77200 in [10]; 82700 in test [11]; 54000 in test [12]; 55200 in test [13]; 73 in [14]; 70 in test [15].

The term EC50 denotes the concentration at which the effect is half-maximal.
